Tests used:
[1] = SEC; Superdex 200 GL 10/300, PBS pH 7.5, protein injected at 50 µM, 0.5 mL/min, A280; percent of monomeric, dimeric and high molecular weight species
[2] = SEC; Superdex 200 GL 10/300, PBS pH 7.5, protein injected at 120 µM, 0.5 mL/min, A280; percent of monomeric, dimeric and high molecular weight species
[3] = SEC; Superdex 200 GL 10/300, PBS pH 7.5, protein injected at 10 µM, 0.5 mL/min, A280; percent of monomeric, dimeric and high molecular weight species
[4] = molecular target: BlaP(Gln)79 (Bacillus licheniformis 749/C); experiment: SEC; Superdex 200 GL 10/300, PBS pH 7.5, protein injected at 120 µM, 0.5 mL/min, A280; percent of monomeric, dimeric and high molecular weight species

Substance | % dimeric species (SEC) [1] [%] | % dimeric species (SEC) [2] [%] | % high molecular weight oligomeric species (SEC) [1] [%] | % dimeric species (SEC) [3] [%] | % high molecular weight oligomeric species (SEC) [3] [%] | % high molecular weight oligomeric species (SEC) [2] [%] | stoichiometry N [4]
BlaP(Gln)23 | 0.6 | 0.7 |  |  |  |  | 
BlaP(Gln)30 | 0.4 | 0.5 |  |  |  |  | 
BlaP(Gln)55 | 1.1 | 1.4 |  |  |  |  | 
BlaP(Gln)79 | 1.1 | 1.2 | 2.5 | 0.9 | 1.8 | 3.5 | 
BlaP(Gln)79 (enzyme) |  |  |  |  |  |  | > 15
β-lactamase from Bacillus licheniformis 749/C (BlaP) | 4.9 | 5.6 |  |  |  |  | 

— article PMC3305072
